Source: patent publication US20220396788, “RECOMBINANT TRANSPOSON ENDS” (THERMO FISHER SCIENTIFIC BALTICS, UAB, published 2022)

B1: Tn-SEQ2.1 (dsDNA)
DNA 1: GTTTTCGCTCTTCCGATCTAACGCTTTCGCGTTTTTCGTGCGCCGCTTCA
DNA 2: CTAGTGAAGCGGCGCACGAAAAACGCGAAAGCGTTAGATCGGAAGAGCGAAAAC
B2: Mu-N0 transposon end (control) (dsDNA)
DNA 1: GTTTTCGCATTTATCGTGAAACGCTTTCGCGTTTTTCGTGCGCCGCTTCA
DNA 2: CTAGTGAAGCGGCGCACGAAAAACGCGAAAGCGTTTCACGATAAATGCGAAAAC
B3: ACGC barcode end (dsDNA)
DNA 1: GTTTTCGCATTTATCGTGAAACGCTTTCGCGTTTTTCGTGCGCCACGCCA
DNA 2: CTAGTGGCGTGGCGCACGAAAAACGCGAAAGCGTTTCACGATAAATGCGAAAAC
B4: TACG barcode end (dsDNA)
DNA 1: GTTTTCGCATTTATCGTGAAACGCTTTCGCGTTTTTCGTGCGCCTACGCA
DNA 2: CTAGTGCGTAGGCGCACGAAAAACGCGAAAGCGTTTCACGATAAATGCGAAAAC
B5: GCGT barcode end (dsDNA)
DNA 1: GTTTTCGCATTTATCGTGAAACGCTTTCGCGTTTTTCGTGCGCCGCGTCA
DNA 2: CTAGTGACGCGGCGCACGAAAAACGCGAAAGCGTTTCACGATAAATGCGAAAAC
B6: AGAG barcode end (dsDNA)
DNA 1: GTTTTCGCATTTATCGTGAAACGCTTTCGCGTTTTTCGTGCGCCAGAGCA
DNA 2: CTAGTGCTCTGGCGCACGAAAAACGCGAAAGCGTTTCACGATAAATGCGAAAAC
B7: CTCT barcode end (dsDNA)
DNA 1: GTTTTCGCATTTATCGTGAAACGCTTTCGCGTTTTTCGTGCGCCCTCTCA
DNA 2: CTAGTGAGAGGGCGCACGAAAAACGCGAAAGCGTTTCACGATAAATGCGAAAAC
B8: TATA barcode end (dsDNA)
DNA 1: GTTTTCGCATTTATCGTGAAACGCTTTCGCGTTTTTCGTGCGCCTATACA
DNA 2: CTAGTGTATAGGCGCACGAAAAACGCGAAAGCGTTTCACGATAAATGCGAAAAC
B9: TTTC barcode end (dsDNA)
DNA 1: GTTTTCGCATTTATCGTGAAACGCTTTCGCGTTTTTCGTGCGCCTTTCCA
DNA 2: CTAGTGGAAAGGCGCACGAAAAACGCGAAAGCGTTTCACGATAAATGCGAAAAC
B10: CATG barcode end (dsDNA)
DNA 1: GTTTTCGCATTTATCGTGAAACGCTTTCGCGTTTTTCGTGCGCCCATGCA
DNA 2: CTAGTGCATGGGCGCACGAAAAACGCGAAAGCGTTTCACGATAAATGCGAAAAC
B11: GTAC barcode end (dsDNA)
DNA 1: GTTTTCGCATTTATCGTGAAACGCTTTCGCGTTTTTCGTGCGCCGTACCA
DNA 2: CTAGTGGTACGGCGCACGAAAAACGCGAAAGCGTTTCACGATAAATGCGAAAAC
B12: ACAT barcode end (dsDNA)
DNA 1: GTTTTCGCATTTATCGTGAAACGCTTTCGCGTTTTTCGTGCGCCACATCA
DNA 2: CTAGTGATGTGGCGCACGAAAAACGCGAAAGCGTTTCACGATAAATGCGAAAAC
B13: CGCA barcode end (dsDNA)
DNA 1: GTTTTCGCATTTATCGTGAAACGCTTTCGCGTTTTTCGTGCGCCCGCACA
DNA 2: CTAGTGTGCGGGCGCACGAAAAACGCGAAAGCGTTTCACGATAAATGCGAAAAC
B14: GGGA barcode end (dsDNA)
DNA 1: GTTTTCGCATTTATCGTGAAACGCTTTCGCGTTTTTCGTGCGCCGGGACA
DNA 2: CTAGTGTCCCGGCGCACGAAAAACGCGAAAGCGTTTCACGATAAATGCGAAAAC
B15: Tn-SEQ1 (dsDNA)
DNA 1: GTTTTAGATGTGTATAAGAGACAGTTTCGCGTTTTTCGTGCGCCGCTTCA
DNA 2: CTAGTGAAGCGGCGCACGAAAAACGCGAAACTGTCTCTTATACACATCTAAAAC
B16: Tn-SEQ2.2 (dsDNA)
DNA 1: GTTTTCGCATTTATCGTGAAACGCTTTCGCGTTTTTGCTCTTCCGATCTA
DNA 2: CTAGTAGATCGGAAGAGCAAAAACGCGAAAGCGTTTCACGATAAATGCGAAAAC

What follows are binders tested against T1, MuA transposase (UniProt P07636 P07636:1-663) (assay: EMSA; 8 substitutions (1 sensitive); active (FIG. 13B)). Details: chain copies: 4 (inferred); 5' overhang.
Protocol: (§1) MuA transposomes were formed in 1× Complex Assembly Buffer with DMSO. Complex assembly reaction contained equimolar ratio of transposon end (9.3 μM) and MuA transposase (1.65 mg/mL). Components were well-mixed and incubated for one hour at 30° C. After incubation, the complex assembly mix was diluted with dilution buffer (88.0% glycerol, 314.5 mM NaCl, and 2.83 mM EDTA) to the final MuA concentration of 0.919 mg/mL. Complexed MuA transposome was stored at −70° C. for at least 16 hours before use.
(§2) Complex assembly efficiency was evaluated using an electrophoretic mobility shift assay (EMSA) on a 2% agarose gel containing 0.5 μg/mL Ethidium bromide and 87 μg/mL BSA and heparin. Activity was evaluated by fragmenting 100 ng Escherichia virus lambda genomic DNA with 1.5 μL MuA complex in 1× Fragmentation Reaction Buffer (Thermo Scientific™ MuSeek™ Library Preparation Kit, Illumina™ compatible, Cat. No. K1361). Fragmentation was carried out for 5 minutes at 30° C., then stopped by adding 4.4% SDS solution.

T1 sequence (P07636 whole entry, one chain of several): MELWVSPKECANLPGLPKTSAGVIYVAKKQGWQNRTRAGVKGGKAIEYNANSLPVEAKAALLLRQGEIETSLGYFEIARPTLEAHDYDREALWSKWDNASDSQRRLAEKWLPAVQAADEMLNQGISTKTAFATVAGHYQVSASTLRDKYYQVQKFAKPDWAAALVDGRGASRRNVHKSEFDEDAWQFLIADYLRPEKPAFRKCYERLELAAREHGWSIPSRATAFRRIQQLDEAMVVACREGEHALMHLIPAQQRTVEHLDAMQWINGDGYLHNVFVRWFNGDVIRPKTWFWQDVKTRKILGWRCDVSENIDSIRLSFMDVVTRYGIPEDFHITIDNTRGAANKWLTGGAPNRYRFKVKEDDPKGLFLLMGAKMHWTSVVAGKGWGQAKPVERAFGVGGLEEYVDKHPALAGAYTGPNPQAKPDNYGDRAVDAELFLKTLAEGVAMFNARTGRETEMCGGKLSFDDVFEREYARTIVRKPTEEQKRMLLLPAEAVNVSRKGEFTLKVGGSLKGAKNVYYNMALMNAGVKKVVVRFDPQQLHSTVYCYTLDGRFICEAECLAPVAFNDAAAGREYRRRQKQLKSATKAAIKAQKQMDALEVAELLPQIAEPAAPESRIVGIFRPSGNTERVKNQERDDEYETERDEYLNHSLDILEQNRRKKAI

Binding result, binds:
B1

Each binder was assayed against T1, MuA transposase (assay: EMSA; transposome assembly pH 6.0, 10% DMSO, 30 C 1 h; also fragments lambda DNA (FIG. 5A)). Details: chain copies: 4 (inferred); 5' overhang on non-transferred strand.
Protocol: (§3) Analysis was carried out on 2% agarose gel containing 0.5 μg/mL Ethidium bromide and 87 μg/mL BSA and heparin. 5 μL of each loaded sample contains 2 μL of each transposome complex, 1 μL 6× TriTrack DNA Loading Dye (Thermo Scientific, Cat. No. R1161) and 2 μL of water. GeneRuler Low Range DNA Ladder (Thermo Scientific, Cat. No. SM1193) was used.
as §1, with “in 30 mM Tris-HCl, pH 6.0, 10% (v/v) glycerol, 0.005% (w/v) Triton X-100, 30 mM NaCl, 0.02 mM EDTA, and 10%” for “in 1× Complex Assembly Buffer with”, “DMSO. The complex” for “DMSO. Complex”, “end (11.2” for “end (9.3”, “were well mixed” for “were well-mixed”
Complex assembly efficiency was evaluated using an electrophoretic mobility shift assay (EMSA) on a 2% agarose gel containing 0.5 μg/mL ethidium bromide and 87 μg/mL BSA and heparin. Activity was evaluated by fragmenting 100 ng Escherichia virus lambda genomic DNA with 1.5 μL MuA complex in 30 μL of 1× Fragmentation Reaction Buffer (Thermo Scientific™ MuSeek™ Library Preparation Kit, Illumina™ compatible, Cat. No. K1361). […]

Binding result, binds:
B2

Each binder was assayed against T1, MuA transposase (assay: EMSA; stable transposome; DMSO, 30 C 1 h; active (FIG. 9)). Details: chain copies: 4 (inferred); 5' overhang.
Protocol: as §3, with “FIG. 8 provides EMSA analysis of MuA transposomes that all contain individual unique sequences. Analysis” for “Analysis”, “R1161),” for “R1161)”, “SM1193) marker” for “SM1193)”
as §1, with “with DMSO. The complex assembly reaction” for “with DMSO. Complex assembly reaction”, “well-mixed and placed for incubated for” for “well-mixed and incubated for”

Binding result, binds:
B3
B4
B5
B6
B7
B8
B9
B10
B11
B12
B13
B14

These binders were tested against T1, MuA transposase (assay: EMSA; 13 substitutions (3 sensitive); active (FIG. 13A)). Details: chain copies: 4 (inferred); 5' overhang.
Protocol: as §1, §2

Binding result, binds:
B15

These binders were tested against T1, MuA transposase (assay: EMSA; 8 substitutions (1 sensitive); active (FIG. 13C)). Details: chain copies: 4 (inferred); 5' overhang.
Protocol: as §1, §2

Binding result, binds:
B16
